# Measurements reported in CN114057887A.
# Target: RBD-His (近岸生物货号:DRA42) (SARS-CoV-2) (UniProt P0DTC2)
substance,measurement,value
hACE2-Fc融合蛋白 (人ACE2胞外区(ECD)与人IgG1的Fc片段的融合蛋白) (Fc fusion),亲和力,0.54 nM
